For the assay, the target named is Sh2 N9 NA ectodomain plus stalk with His6-tag (tetramer) (influenza A virus A/Shanghai/02/2013 …). The experiment in a line: cryo-EM structure.

B1: human anti-N9 antibody NA-73 Fab (Fab, V domains shown)
VH: QVQLEESGPGLVKPSETLSLTCTVSGYTISSGYYWGWIRQPPGKGLEWIGCNNHRGSSYYNPSLKSRVIISVDTTKNKFSLKLSSVTAADTAVYYCARDPSFWSSTSRTSPYYYGMDVWGQGTLVTVSS
VL: not shown
Regarding B1, the stoichiometry N (in general, the number of molecules, sites or subunits per partner or assembly) came to 1 Fab per NA protomer.

B2: human anti-N9 antibody NA-80 Fab (Fab, V domains shown)
VH: QVQLVQSGAEVKRPGASVKVSCKASGYTFISYGISWVRQAPGQGLEWMGWISAYNGNTNYAQNLQGRVTMTTDTSTSTAYMELRSLRSDDTAVYYCARVIPGTAVDYFDYWGQGTLVTVSS
VL: DIVMTQSPSSLSASVGDRVTISCRASQSISSYLNWYQQKPGKAPKLLIYAASSLQSGVPSRFSGSASGTDFTLTISSLQPEDFATYYCQQSYSAPFTFGPGTKVDIE
Turning to B2, the “stoichiometry N” value came out at 1 Fab per NA protomer.

B3: human anti-N9 antibody NA-22 Fab (Fab, V domains shown)
VH: QVQLVESGGGVVQPGRSLRLSCAASGFTFNNYGMHWVRQAPGKGLEWVAVISYDGSNKYYADSVKGRFTISRDNSKNTLYLQMNSLRAEDTAVYYCAKDKRFITMILVGPFDYWGQGTLVTVSS
VL: QSVLTQPASVSGSPGQSITISCTGTSSDVGGYNYVSWHQQHPGKAPKLMIYDVSNRPSGVSNRFSGSKSGNTASLTISGLQTEDEADYYCSSYTSSTTNVFGTGTKVTVL
Regarding B3, the “stoichiometry N” value was found to be 4 Fabs per NA tetramer.

B4: human anti-N9 antibody NA-63 Fab (Fab, V domains shown)
VH: EVQLVESGGGLVQPGGSLRLSCAASGFTFSSYWMSWVRQAPGKGLDWVANIKQDGSEKYYVDSVKGRFTISRHNAKNSLYLQMNSLRAEDTAVYYCASSTAAEFFDYWGQGTLVTVSS
VL: DIVMTQSPSSLSASVGDRVTITCRASQSISTYLNWYQQKPGKAPKLLIYAASSLQGGVPSRFSGSGSGTDFTLTISSLQPEDFATYYCQQSYSTPLYTFGQGTKLEIK
Take B4: the binding result was “binds”.

(Values after PMC6908751 (Cell host & microbe, 2019).)
